{"source": "patent US6294153A", "about": "“Aerosol pharmaceutical formulation for pulmonary and nasal delivery” (Generex Pharmaceuticals, Inc., priority 1999, dated 2001)", "key": {"[1]": {"protocol": "The vials were then charged with a non-CFC tetrafluoroethane, (134a) propellant with the aid of a Pamasol 2008 semi-automatic gas filling equipment.\nThe aerodynamic particle size was determined by 8-stage USP Anderson Cascade Impactor-Mark-II (trade mark). The Multistage Cascade Impactor was cleaned with methanol and air-dried at 30° C. Glass fibre filters were placed on the collection plates. Seals were aligned properly and the actuator was attached to the mouthpiece and assembled onto the USP induction port and jet stages. A vacuum pump was connected and air flow rate is set to 28.3 liter/min. The vial was primed by shaking for 10 seconds and actuating twice to waste. […] […] The filters were carefully removed and placed in scintillation vials and sonicated for 15 minutes."}, "[2]": {"settings": "healthy volunteers; 10, 20, 30 units aerosol", "excerpt": "Day-1: 5 puffs of 2 units each (total 10 units)\nDay-2: 5 puffs of 4 units each (total 20 units)\nDay-1: 5 puffs of 6 units each (total 30 units)"}, "[3]": {"settings": "stage 3, U400, 4 units/actuation"}, "[4]": {"settings": "stage 4, U400, 4 units/actuation"}, "[5]": {"settings": "stage 5, U400, 4 units/actuation"}, "[6]": {"settings": "stage 6, U400, 4 units/actuation"}, "[7]": {"settings": "stage 7, U400, 4 units/actuation"}, "[8]": {"settings": "stage 8, U400, 4 units/actuation"}}, "note": "Where two headings read alike, the source gives them in different places."}
{"substance": "insulin", "values": [{"measurement": "size of most particles", "setting": "[1]; cascade impactor, most particles", "result": "smaller than 6 microns"}, {"measurement": "particle size (conclusion)", "setting": "[1]; cascade impactor, overall", "result": "about 3 microns"}, {"measurement": "droplet size, generally", "setting": "[1]; cascade impactor, indicates deep lung deposition", "result": "smaller than 4 microns"}, {"measurement": "mg (insulin deposited)", "setting": "[1]; stage 3, 2 units/actuation", "result": 0.77, "unit": "mg"}, {"measurement": "units (insulin deposited)", "setting": "[1]; stage 3, 2 units/actuation", "result": 10.1, "unit": "units"}, {"measurement": "mg (insulin deposited)", "setting": "[1]; [3]", "result": 0.77, "unit": "mg"}, {"measurement": "units (insulin deposited)", "setting": "[1]; [3]", "result": 20.1, "unit": "units"}, {"measurement": "mg (insulin deposited)", "setting": "[1]; stage 4, 2 units/actuation", "result": 0.78, "unit": "mg"}, {"measurement": "units (insulin deposited)", "setting": "[1]; stage 4, 2 units/actuation", "result": 10.1, "unit": "units"}, {"measurement": "mg (insulin deposited)", "setting": "[1]; [4]", "result": 0.78, "unit": "mg"}, {"measurement": "units (insulin deposited)", "setting": "[1]; [4]", "result": 20.1, "unit": "units"}, {"measurement": "mg (insulin deposited)", "setting": "[1]; stage 5, 2 units/actuation", "result": 0.81, "unit": "mg"}, {"measurement": "units (insulin deposited)", "setting": "[1]; stage 5, 2 units/actuation", "result": 10.0, "unit": "units"}, {"measurement": "mg (insulin deposited)", "setting": "[1]; [5]", "result": 0.81, "unit": "mg"}, {"measurement": "units (insulin deposited)", "setting": "[1]; [5]", "result": 20.0, "unit": "units"}, {"measurement": "mg (insulin deposited)", "setting": "[1]; stage 6, 2 units/actuation", "result": 0.80, "unit": "mg"}, {"measurement": "units (insulin deposited)", "setting": "[1]; stage 6, 2 units/actuation", "result": 10.3, "unit": "units"}, {"measurement": "mg (insulin deposited)", "setting": "[1]; [6]", "result": 0.80, "unit": "mg"}, {"measurement": "units (insulin deposited)", "setting": "[1]; [6]", "result": 20.3, "unit": "units"}, {"measurement": "mg (insulin deposited)", "setting": "[1]; stage 7, 2 units/actuation", "result": 0.80, "unit": "mg"}, {"measurement": "units (insulin deposited)", "setting": "[1]; stage 7, 2 units/actuation", "result": 10.1, "unit": "units"}, {"measurement": "mg (insulin deposited)", "setting": "[1]; [7]", "result": 0.80, "unit": "mg"}, {"measurement": "units (insulin deposited)", "setting": "[1]; [7]", "result": 20.1, "unit": "units"}, {"measurement": "mg (insulin deposited)", "setting": "[1]; stage 8, 2 units/actuation", "result": 0.79, "unit": "mg"}, {"measurement": "units (insulin deposited)", "setting": "[1]; stage 8, 2 units/actuation", "result": 10.1, "unit": "units"}, {"measurement": "mg (insulin deposited)", "setting": "[1]; [8]", "result": 0.79, "unit": "mg"}, {"measurement": "units (insulin deposited)", "setting": "[1]; [8]", "result": 20.1, "unit": "units"}, {"measurement": "insulin deposition", "setting": "[1]; stages 0-2", "result": "no insulin deposition"}, {"measurement": "absorption of insulin through lungs and oropharynx regions", "setting": "[2]", "result": "significant absorption"}]}
